Literature values, collected in US20240382567A1, “Long-acting PTH compound treatments” (Ascendis Pharma Bone Diseases A/S, priority 2021, published 2024).
Like-named read-outs stand apart in the source and are kept apart here.

System: patients with hypoparathyroidism

B1: PTH(1-84): daily injection of PTH(1-84), approved as adjunct to calcium and vitamin D to control hypocalcemia in hypoparathyroidism (protein, UniProt P01270 32-115, looked up)
Parathyroid hormone: SVSEIQLMHNLGKHLNSMERVEWLRKKLQDVHNFVALGAPLAPRDAGSQRPRKKEDNVLVESHEKSLGEADKADVNVLTKAKSQ
modifications: Parathyroid hormone
notes: daily injection of PTH(1-84), approved as adjunct to calcium and vitamin D to control hypocalcemia in hypoparathyroidism
- Total hip BMD increase from baseline (3 years, P=0.04): 2.10%
- Lumbar spine BMD increase (at 24 months, P=0.01): 3.2%
- Distal one third radius BMD mean loss (study conclusion (year 6), P=0.0001 vs baseline): 4.4%
- Femoral neck BMD increase (year 3, P=0.04): 2.6%
- Distal one third radius T-score (year 6): −0.28
- Femoral neck BMD versus baseline (year 6): not different from baseline
- Lumbar spine BMD mean gain from baseline (year 6, P=0.004): 3.8%
- Total hip BMD increase from baseline (year 6, P=0.02): 2.4%
